For this data set, the system named is Escherichia coli TOP10. Put plainly: shrunken log2 fold change of peptide-encoding DNA abundance (4.5 h post-induction vs induction); higher = less antimicrobial activity (less host growth inhibition). The following applies: time post-induction: 4.5 h; library: site-saturation at positions 5, 18, 19, 20.
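Further: peptides expressed intracellularly from a pBAD plasmid library in pooled LB shake-flask culture, induced with 0.3% L-arabinose, DNA abundance read by NGS, three biological replicates, DESeq2 with apeglm shrinkage.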

In the case of RRIRPRPPRLPRPRPRPRTTPRP, the “shrunken log2 fold change” value was found to be 0.332.
RRIRDRPPRLPRPRPRPSWVPRP: the “shrunken log2 fold change” value was -0.211.
Take RRIRIRPPRLPRPRPRPWVPPRP: the “shrunken log2 fold change” value is -0.28.
Take RRIRGRPPRLPRPRPRPWLTPRP: the “shrunken log2 fold change” value was 0.134.
The result for RRIRFRPPRLPRPRPRPCDKPRP reads -0.0972; that for RRIRSRPPRLPRPRPRPYGQPRP, -0.134; that for RRIRGRPPRLPRPRPRPQVDPRP, 0.266.
Regarding RRIRMRPPRLPRPRPRPGSWPRP, the “shrunken log2 fold change” value is 0.858.
For the sequence RRIRGRPPRLPRPRPRPINCPRP, the “shrunken log2 fold change” value is -0.0247.
Take RRIRWRPPRLPRPRPRPGCWPRP: the “shrunken log2 fold change” value worked out at 1.09.
Consider RRIRPRPPRLPRPRPRPPRIPRP, for which the “shrunken log2 fold change” value amounted to 0.233.
RRIRKRPPRLPRPRPRPSVDPRP: the “shrunken log2 fold change” value was 0.0884.
Consider RRIRWRPPRLPRPRPRPSDMPRP, for which the “shrunken log2 fold change” value was -0.354.
The result for RRIRFRPPRLPRPRPRPDRFPRP reads 0.042; that for RRIRARPPRLPRPRPRPAGYPRP, 0.399.
RRIRMRPPRLPRPRPRPYLIPRP: the “shrunken log2 fold change” value was -0.463.
RRIRKRPPRLPRPRPRPWMVPRP: the “shrunken log2 fold change” value came out at 0.0578.
With RRIRIRPPRLPRPRPRPQSIPRP, the “shrunken log2 fold change” value was -0.0763.
The result for RRIRARPPRLPRPRPRPKWMPRP reads 0.191; that for RRIRYRPPRLPRPRPRPNIRPRP, 0.0146.
As to RRIRGRPPRLPRPRPRPQVHPRP, the “shrunken log2 fold change” value was 0.231.
For RRIRGRPPRLPRPRPRPNFPPRP, the “shrunken log2 fold change” value is 0.193.
With RRIRSRPPRLPRPRPRPRYVPRP, the “shrunken log2 fold change” value is -0.597.
The result for RRIRKRPPRLPRPRPRPCMRPRP reads 0.0327; that for RRIRHRPPRLPRPRPRPREIPRP, 0.0735; that for RRIRLRPPRLPRPRPRPEHWPRP, 0.4.
Consider RRIRMRPPRLPRPRPRPPIAPRP, for which the “shrunken log2 fold change” value amounted to 0.826.
The result for RRIRQRPPRLPRPRPRPNREPRP reads -0.0709.
For the sequence RRIRARPPRLPRPRPRPPAMPRP, the “shrunken log2 fold change” value was determined as 0.394.
RRIRRRPPRLPRPRPRPHCSPRP: the “shrunken log2 fold change” value was -0.0453.
With RRIRGRPPRLPRPRPRPLTHPRP, the “shrunken log2 fold change” value came to 0.168.
Regarding RRIRDRPPRLPRPRPRPYNAPRP, the “shrunken log2 fold change” value is -0.0556.
The result for RRIRIRPPRLPRPRPRPWIEPRP reads -0.186; that for RRIRCRPPRLPRPRPRPYGGPRP, -0.136.
With RRIRFRPPRLPRPRPRPCGMPRP, the “shrunken log2 fold change” value is -0.24.
Consider RRIRQRPPRLPRPRPRPWAMPRP, for which the “shrunken log2 fold change” value was -0.0161.
On to RRIRYRPPRLPRPRPRPHVAPRP, for which the “shrunken log2 fold change” value is -0.312.
On to RRIRCRPPRLPRPRPRPIRTPRP, for which the “shrunken log2 fold change” value is -0.673.
The result for RRIRFRPPRLPRPRPRPRTQPRP reads 1.93; that for RRIRPRPPRLPRPRPRPGWNPRP, -0.055.
For RRIRARPPRLPRPRPRPGTEPRP, the “shrunken log2 fold change” value worked out at 0.376.
In the case of RRIRERPPRLPRPRPRPPKYPRP, the “shrunken log2 fold change” value is -0.294.
The result for RRIRIRPPRLPRPRPRPKKLPRP reads -0.219; that for RRIRTRPPRLPRPRPRPFDRPRP, 0.0237.
Consider RRIRERPPRLPRPRPRPMLAPRP, for which the “shrunken log2 fold change” value stood at 0.193.
For RRIRPRPPRLPRPRPRPIMPPRP, the “shrunken log2 fold change” value is -0.257.
Regarding RRIRTRPPRLPRPRPRPLKPPRP, the “shrunken log2 fold change” value is -0.126.
For RRIRRRPPRLPRPRPRPQKMPRP, the “shrunken log2 fold change” value was -0.02.
Regarding RRIRHRPPRLPRPRPRPSQEPRP, the “shrunken log2 fold change” value was -0.27.
As to RRIRTRPPRLPRPRPRPMWYPRP, the “shrunken log2 fold change” value is -0.602.
Turning to RRIRLRPPRLPRPRPRPKLVPRP, the “shrunken log2 fold change” value is -0.0181.
As to RRIRDRPPRLPRPRPRPDYVPRP, the “shrunken log2 fold change” value is -0.0518.
For the sequence RRIRCRPPRLPRPRPRPTARPRP, the “shrunken log2 fold change” value is 0.105.
Consider RRIRYRPPRLPRPRPRPREPPRP, for which the “shrunken log2 fold change” value was determined as 0.419.
Regarding RRIRHRPPRLPRPRPRPPQSPRP, the “shrunken log2 fold change” value stood at 0.193.
As to RRIRARPPRLPRPRPRPVEMPRP, the “shrunken log2 fold change” value was found to be 0.196.
The result for RRIRGRPPRLPRPRPRPMWIPRP reads 0.218; that for RRIRGRPPRLPRPRPRPRTRPRP, 1.01; that for RRIRMRPPRLPRPRPRPLIQPRP, 0.00597.
Consider RRIRIRPPRLPRPRPRPMDEPRP, for which the “shrunken log2 fold change” value came to 0.00773.
In the case of RRIRERPPRLPRPRPRPDHGPRP, the “shrunken log2 fold change” value was -0.00973.
Turning to RRIRTRPPRLPRPRPRPWDPPRP, the “shrunken log2 fold change” value was found to be 0.102.
The result for RRIRKRPPRLPRPRPRPLWKPRP reads -0.206; that for RRIRWRPPRLPRPRPRPCSWPRP, 0.0533.
With RRIRERPPRLPRPRPRPHHFPRP, the “shrunken log2 fold change” value is -0.0117.
With RRIRLRPPRLPRPRPRPMDAPRP, the “shrunken log2 fold change” value was 0.282.
Turning to RRIRGRPPRLPRPRPRPIEQPRP, the “shrunken log2 fold change” value was determined as 0.109.
Regarding RRIRFRPPRLPRPRPRPWPSPRP, the “shrunken log2 fold change” value was -0.0611.
The result for RRIRYRPPRLPRPRPRPLGMPRP reads -0.807.
For RRIRNRPPRLPRPRPRPWWVPRP, the “shrunken log2 fold change” value was -0.226.
With RRIRRRPPRLPRPRPRPVVRPRP, the “shrunken log2 fold change” value is 0.274.
For the sequence RRIRARPPRLPRPRPRPFDGPRP, the “shrunken log2 fold change” value is -0.22.
The result for RRIRMRPPRLPRPRPRPEMSPRP reads -0.00133; that for RRIRKRPPRLPRPRPRPRHTPRP, 0.328; that for RRIRRRPPRLPRPRPRPNDCPRP, 0.264.
Take RRIRMRPPRLPRPRPRPEDYPRP: the “shrunken log2 fold change” value came out at 1.06.
On to RRIRERPPRLPRPRPRPRDNPRP, for which the “shrunken log2 fold change” value was -0.321.
RRIRTRPPRLPRPRPRPYKVPRP: the “shrunken log2 fold change” value is -1.32.
RRIRSRPPRLPRPRPRPIALPRP: the “shrunken log2 fold change” value was -0.385.
Consider RRIRYRPPRLPRPRPRPNVRPRP, for which the “shrunken log2 fold change” value is -0.0227.
Consider RRIRTRPPRLPRPRPRPCTVPRP, for which the “shrunken log2 fold change” value is -0.442.
Take RRIRIRPPRLPRPRPRPIQHPRP: the “shrunken log2 fold change” value was -0.468.
The result for RRIRCRPPRLPRPRPRPLWFPRP reads -0.315; that for RRIRLRPPRLPRPRPRPVHCPRP, -0.11.
In the case of RRIRERPPRLPRPRPRPNWGPRP, the “shrunken log2 fold change” value came out at 0.00892.
The result for RRIRDRPPRLPRPRPRPHYVPRP reads -0.0495.
As to RRIRHRPPRLPRPRPRPMQYPRP, the “shrunken log2 fold change” value was -0.104.
As to RRIRNRPPRLPRPRPRPGYCPRP, the “shrunken log2 fold change” value was -0.369.
For RRIRGRPPRLPRPRPRPVRSPRP, the “shrunken log2 fold change” value came to 0.902.
The result for RRIRSRPPRLPRPRPRPMPEPRP reads 0.376; that for RRIRMRPPRLPRPRPRPQYRPRP, -0.0939; that for RRIRGRPPRLPRPRPRPIWNPRP, 0.37.
As to RRIRPRPPRLPRPRPRPGMEPRP, the “shrunken log2 fold change” value was 0.367.
With RRIRRRPPRLPRPRPRPRHPPRP, the “shrunken log2 fold change” value came to 0.524.
With RRIRFRPPRLPRPRPRPVNMPRP, the “shrunken log2 fold change” value is -1.23.
Take RRIRYRPPRLPRPRPRPIGAPRP: the “shrunken log2 fold change” value is -0.419.
With RRIRKRPPRLPRPRPRPRRRPRP, the “shrunken log2 fold change” value is 1.27.
The result for RRIRPRPPRLPRPRPRPCLNPRP reads -0.35; that for RRIRYRPPRLPRPRPRPAKPPRP, -0.0319.
As to RRIRGRPPRLPRPRPRPNQVPRP, the “shrunken log2 fold change” value was 0.195.
Take RRIRMRPPRLPRPRPRPFKEPRP: the “shrunken log2 fold change” value is -0.00865.
The result for RRIRCRPPRLPRPRPRPAPHPRP reads 0.625; that for RRIRWRPPRLPRPRPRPHTIPRP, -0.533; that for RRIRGRPPRLPRPRPRPIIEPRP, 0.863.
For RRIRIRPPRLPRPRPRPTGKPRP, the “shrunken log2 fold change” value was -0.129.
Take RRIRIRPPRLPRPRPRPGAWPRP: the “shrunken log2 fold change” value worked out at 0.215.
Regarding RRIRHRPPRLPRPRPRPQNYPRP, the “shrunken log2 fold change” value was -1.11.
The result for RRIRMRPPRLPRPRPRPGALPRP reads 0.954.
For the sequence RRIRKRPPRLPRPRPRPLTFPRP, the “shrunken log2 fold change” value was 0.299.
Turning to RRIRIRPPRLPRPRPRPNKNPRP, the “shrunken log2 fold change” value is -0.701.
The result for RRIRGRPPRLPRPRPRPGNIPRP reads -0.104; that for RRIRIRPPRLPRPRPRPDSNPRP, -0.168; that for RRIRGRPPRLPRPRPRPEEKPRP, 1.66.
With RRIRQRPPRLPRPRPRPGSYPRP, the “shrunken log2 fold change” value is -0.2.
With RRIRIRPPRLPRPRPRPFFGPRP, the “shrunken log2 fold change” value was -0.00653.
The result for RRIRNRPPRLPRPRPRPDWYPRP reads -0.0314; that for RRIRDRPPRLPRPRPRPEKCPRP, -0.000921.
Take RRIRPRPPRLPRPRPRPFSQPRP: the “shrunken log2 fold change” value was -0.231.
As to RRIRFRPPRLPRPRPRPFWIPRP, the “shrunken log2 fold change” value was -0.357.
For RRIRHRPPRLPRPRPRPYEHPRP, the “shrunken log2 fold change” value was -1.01.
The result for RRIRMRPPRLPRPRPRPRDGPRP reads 2.69; that for RRIRLRPPRLPRPRPRPEWDPRP, 0.273.
As for RRIRNRPPRLPRPRPRPGLDPRP, the “shrunken log2 fold change” value is 0.00266.
On to RRIRSRPPRLPRPRPRPIRIPRP, for which the “shrunken log2 fold change” value is -0.405.
The result for RRIRPRPPRLPRPRPRPDLEPRP reads 0.063.

These data come from the supplement of paper PMC9112550, “Optimization of the antimicrobial peptide Bac7 by deep mutational scanning” (BMC Biology, 2022).
